Measured values: patent US20260015426A1 (23ANDME, published 2026)

T1: hu-M-IL1RAP construct, positions S21-T367 (extracellular domain of the membrane form of human IL1RAP) (human, UniProt Q9NPH3 21-367)
T1 construct: Biotinylated when captured on the Biacore chip
T1 sequence: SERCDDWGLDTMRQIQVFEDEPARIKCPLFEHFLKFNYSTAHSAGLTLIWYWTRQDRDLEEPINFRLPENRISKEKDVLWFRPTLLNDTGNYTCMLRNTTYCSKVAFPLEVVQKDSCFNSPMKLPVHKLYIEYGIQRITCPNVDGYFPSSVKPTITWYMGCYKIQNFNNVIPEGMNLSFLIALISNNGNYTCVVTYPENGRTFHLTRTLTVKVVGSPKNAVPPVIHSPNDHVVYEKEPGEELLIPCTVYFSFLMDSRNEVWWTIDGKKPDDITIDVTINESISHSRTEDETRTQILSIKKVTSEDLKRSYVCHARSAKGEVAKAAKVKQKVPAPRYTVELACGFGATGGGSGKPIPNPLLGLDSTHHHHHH

B1: H2 Fab (VH R96D) (Fab, V domains shown)
VH: EVQLVESGGGLVQPGGSLRLSCAASGFTFSNYAMSWVRQAPGKGLEWVATVTEGGDYNYYLDDVKGRFTISRDNAKNSLYLQMNSLRAEDTAVYYCARDDWPYFFDYWGQGTLVTVSS
VL: DIQMTQSPSSLSASVGDRVTITCRASENIYSNLAWYQQKPGKSPKLLVYGAKNLADGVPSRFSGSGSGTDYTLTISSLQPEDFATYYCQHFWTTPRTFGGGTKVEIK
notes: Fab with 8xHis tag
B2: H3 Fab (VH V51S) (Fab, V domains shown)
VH: EVQLVESGGGLVQPGGSLRLSCAASGFTFSNYAMSWVRQAPGKGLEWVATSTEGGDYNYYLDDVKGRFTISRDNAKNSLYLQMNSLRAEDTAVYYCARDRWPYFFDYWGQGTLVTVSS
VL: DIQMTQSPSSLSASVGDRVTITCRASENIYSNLAWYQQKPGKSPKLLVYGAKNLADGVPSRFSGSGSGTDYTLTISSLQPEDFATYYCQHFWTTPRTFGGGTKVEIK
notes: Fab with 8xHis tag
B3: H4 Fab (VH F29Q) (Fab, V domains shown)
VH: EVQLVESGGGLVQPGGSLRLSCAASGFTQSNYAMSWVRQAPGKGLEWVATVTEGGDYNYYLDDVKGRFTISRDNAKNSLYLQMNSLRAEDTAVYYCARDRWPYFFDYWGQGTLVTVSS
VL: DIQMTQSPSSLSASVGDRVTITCRASENIYSNLAWYQQKPGKSPKLLVYGAKNLADGVPSRFSGSGSGTDYTLTISSLQPEDFATYYCQHFWTTPRTFGGGTKVEIK
notes: Fab with 8xHis tag
B4: H6 Fab (VH R96Q) (Fab, V domains shown)
VH: EVQLVESGGGLVQPGGSLRLSCAASGFTFSNYAMSWVRQAPGKGLEWVATVTEGGDYNYYLDDVKGRFTISRDNAKNSLYLQMNSLRAEDTAVYYCARDQWPYFFDYWGQGTLVTVSS
VL: DIQMTQSPSSLSASVGDRVTITCRASENIYSNLAWYQQKPGKSPKLLVYGAKNLADGVPSRFSGSGSGTDYTLTISSLQPEDFATYYCQHFWTTPRTFGGGTKVEIK
notes: Fab with 8xHis tag

Legend:
[1] = target: T1, hu-M-IL1RAP construct, positions …; experiment: SPR, Fab against parent Fab
[2] = target: T1, hu-M-IL1RAP construct, positions …; experiment: phage display selection of affinity maturation libraries + NGS; enrichment of the mutation R96D (VH)
Description: (§1) For the first panning round, plates and phage libraries were blocked in PBS buffer containing 0.05% TWEEN® 20 and 1% BSA for either 1 hour (plates) or 30 minutes (phage libraries). Plates were washed in Wash Buffer (PBS buffer containing 0.05% TWEEN® 20) and incubated with blocked phage libraries for 2 hours with shaking. Non-specifically bound phage was removed by washing vigorously with Wash Buffer. […] Non-specific interactions were inhibited by adding 1/10th v/v 1% BSA.
(§2) For panning rounds three through five, phage libraries were incubated with blocking buffer (PBS buffer with 1% BSA in round 3 and SUPERBLOCK™ PBS buffer (Pierce) and 0.05% TWEEN® 20 in rounds 4 and 5) for 30 minutes and then incubated with decreasing concentrations of biotinylated hu-M-IL1RAP for 1 hour. Hu-M-IL1RAP-bound phage were captured on blocked neutravidin-coated plates, washed extensively with Wash Buffer, and eluted and neutralized in the same manner as in rounds 1 and 2. In the final selection round, 1000× non-biotinylated hu-M-IL1RAP was added as a competitor to increase the selection stringency.
(§3) To extract sequences from affinity maturation libraries using NGS, phagemid double stranded DNA was isolated from E. coli XL-1 cells carrying phagemids from the initial phage library (unsorted libraries) and from the second and third rounds of solution selection (sorted libraries). […]

[3] = target: T1, hu-M-IL1RAP construct, positions …; experiment: SPR, Fab analyte, 37 C
Description: (§4) Surface plasmon resonance (SPR) analysis was used to determine binding affinity for hu-M-IL1RAP of the purified Fabs containing the selected single, double, and triple mutations in either the VL or VH regions using a BIACORE™ 8K instrument. […] For kinetics measurements, 5 nM biotinylated hu-M-IL1RAP was captured at 10 μL/min to achieve ˜50 response units in the second flow cell (FC2). FC1 was kept as a reference. […] The sensorgrams were recorded and subjected to reference and buffer subtraction before data analysis with the BIACORE® 8K Evaluation Software (version 1.1.1.7442). Association rates (kₒₙ) and dissociation rates (koff) were calculated using a simple one-to-one Langmuir binding model. The equilibrium dissociation constant (KD) was calculated as the ratio of koff/kₒₙ.

[4] = target: T1, hu-M-IL1RAP construct, positions …; experiment: SPR, Fab analyte, 25 C
Description: as §4

[5] = target: T1, hu-M-IL1RAP construct, positions …; experiment: phage display selection of affinity maturation libraries + NGS; enrichment of the mutation V51S (VH)
Description: as §1, §2, §3

[6] = target: T1, hu-M-IL1RAP construct, positions …; experiment: phage display selection of affinity maturation libraries + NGS; enrichment of the mutation F29Q (VH)
Description: as §1, §2, §3

[7] = target: T1, hu-M-IL1RAP construct, positions …; experiment: phage display selection of affinity maturation libraries + NGS; enrichment of the mutation R96Q (VH)
Description: as §1, §2, §3

Binder	Fold Improvement in KD @ 25° C. [1]	Fold Improvement in KD @ 37° C. [1]	Enrichment ratio (at the highest selection stringency) [2]	Kd [3]	koff [3]	kon [3]	Kd [4]	koff [4]	kon [4]	Enrichment ratio (at the highest selection stringency) [5]	Enrichment ratio (at the highest selection stringency) [6]	Enrichment ratio (at the highest selection stringency) [7]
B1	7.99 fold	2.39 fold	4.06 ratio	0.112 nM	0.000729 s⁻¹	6.5e+06 M⁻¹ s⁻¹	0.0422 nM	0.000219 s⁻¹	5.19e+06 M⁻¹ s⁻¹			
B2	8.51 fold	2.14 fold		0.125 nM	0.000602 s⁻¹	4.82e+06 M⁻¹ s⁻¹	0.0396 nM	0.000208 s⁻¹	5.26e+06 M⁻¹ s⁻¹	3.42 ratio		
B3	8 fold						0.0421 nM	0.000231 s⁻¹	5.49e+06 M⁻¹ s⁻¹		3.02 ratio	
B4	7.2 fold	1.43 fold		0.188 nM	0.000708 s⁻¹	3.76e+06 M⁻¹ s⁻¹	0.0468 nM	0.00025 s⁻¹	5.34e+06 M⁻¹ s⁻¹			3.8 ratio
